Data taken from the RNAGym collection of RNA variant scans (doi:10.1073/pnas.2313332121).

B1: TPR t1 (parent)
chain: GACCAAUCUGCCCUCAGAGCUCGAGAACAUCUUCGGAUGCAGAGGAGGCAGGCUUCGGUGGCGCGAUAGCGCCAACGUCCUCAACCUCCAAUGCAUCCCACCACAUGAUGAUGCCUGAAGAGCCUUGGUUUUUUG

Variants of: B1
Assay: polymerase ribozyme fitness, log enrichment relative to wild type (log ratio); higher = more active; in vitro selection for triplet polymerase activity
Summary of the method: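 To select mutant libraries of each subunit of a heterodimeric triplet polymerase ribozyme, built by PCR and transcribed, each was annealed with a biotinylated primer, partner subunit and triplets, then incubated frozen at −7 °C. Extended constructs were gel-excised, captured on streptavidin beads and amplified by RT-PCR, in one round carried out in triplicate. Illumina sequencing of input and output libraries kept genotypes with ≥10 input reads and ≥1 read per output. Fitness is the base-2 logarithm of genotype enrichment relative to wild-type enrichment, from inverse-variance-weighted replicate averages.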

| Variant | polymerase ribozyme fitness (log ratio) |
| --- | --- |
| A29U U112A U131A | -1.03 |
| C28U G69A | -4.67 |
| C28U G117U | -3.99 |
| C28U G117C | -6 |
| A29G U55C G63U U87A G113C | -4.13 |
| A29C G69U G77U | -2.24 |
| A29U C40G G52C G69C A121G U132C | -2.06 |
| U30A C73U | -5.38 |
| A29U A66G | -3.28 |
| A29U C62A U112C G127C | -3.28 |
| A29U G42U G52A U109G | -2.63 |
| A29U G52A | -1.8 |
| A29U G69U U116C G117C | -1.83 |
| A29U G44U | -3.06 |
| U30C G63U C85U | -5.85 |
| U30C C56G C70U C79A C89U C98U C101A G110C | -6.87 |
| A29G G51U C62U C82G | -4.8 |
| A29C A66G G120A | -2.9 |
| U30A C56A C82A U87A C114G G122A | -6.34 |
| U30C G44A C53G | -5.41 |
| C28U C70G | -4.94 |
| A29U G36U U112C | -1.39 |
| C28U G61U U92C | -2.53 |
| A29U G58A G71C U112A | -1.32 |

| Variant | polymerase ribozyme fitness (log ratio) |
| --- | --- |
| A29U G47A C62U C82U G117C | -5.79 |
| C28U G71U A83U C86G C123G | -2.39 |
| A29G G39U C94G | -2.78 |
| A29G A43U G61U U116C G117U | -0.773 |
| A29U G44A C72U G110A U125A | -5.47 |
| C28U U92C | -3.43 |
| A29U A118U | -1.3 |
| A29C A37G G47U C101U G110U | -5.5 |
| A29U G58C G120C C124A | -1.02 |
| U30A U106A C124G | -2.11 |
| A29G C62U A118U G120C | -1.4 |
| A29C U55G G60U A75U | -2.08 |
| A29U G47C C85U C123U | -4.09 |
| C28U C64U | -2.29 |
| A29U U78A | -1.8 |
| U30C C70U C82G | -6.42 |
| U30A C72G | -6.04 |
| A29U G60C | -2.06 |
| A29G C104U U106G | -1.09 |
| A29C G44C C53U C85A C124G | -4.76 |
| A29G G110A | -2.21 |
| U30A G39C C49A | -5.37 |
| A29C C40U A41U G58C G71U C104U U129A | -6.05 |
| A29U G42C G113U U129A | -4.15 |

| Variant | polymerase ribozyme fitness (log ratio) |
| --- | --- |
| A29U C94U A121U | -0.384 |
| A29G G44U A50U G69U | -2.04 |
| A29G C49U G61A C85U | -1.74 |
| U30C A43U | -4.23 |
| A29G G42A G69C | -4.23 |
| C28U G52C G61A U106A U112A | -1.95 |
| A29U C40A U109C U130G | -6.92 |
| C28U G42U C49G G69U U126G U130A | -6.32 |
| A29U C56U | -1.54 |
| A29U C56A | -2.25 |
| A29U G63U U78C | -4.96 |
| A29G G61A | -0.852 |
| A29G G58C G120U | -1.73 |
| A29U G44A G110A U125A | -3.17 |
| A29U A74C | -1.73 |
| C28U G48A | -3.13 |
| C28U G48U | -2.79 |
| A29G A37C G45C | -3.58 |
| U30A G52C | -5.66 |
| A29U G113C | -2.87 |
| A29U C56U C123U | -0.0509 |
| C28U U55C U59C | -3.17 |
| C28U G39C C53U G61U | -2.31 |
| A29U C73G | -1.92 |

| Variant | polymerase ribozyme fitness (log ratio) |
| --- | --- |
| A29U C73A A118U | -0.992 |
| C28U G47A G60C | -3.22 |
| A29G U126A | -2.42 |
| U30C G61A | -2.02 |
| A29G A37U C89U C94U C123A U126A | -3.13 |
| A29G C53A A90C C101U G113C | -2.81 |
| A29G A37C G71U G117U | -4.47 |
| U30C C49G G63U C70U A84C C114U | -6.54 |
| A29U A84G U87G | -2.37 |
| C28U G44U C56A | -4.15 |
| U30C C64G C99G C123G | -7.65 |
| U30C C86A G135C | -4.17 |
| A29G C72A G113A G128A | -2.62 |
| A29G G52A G71U C73U | -4.52 |
| U30A C88U | -5.1 |
| A29U G39A G117A | -2.71 |
| A29U G45U G120A G128U | -3.92 |
| A29G C104A G117C U131C | -6 |
| A29U A46G G60U A91C | -2.59 |
| C28U G52A | -2.18 |
| C28U G39U G71C C99U G120A | -4.64 |
| C28U G39A G61U | -2.23 |
| A29U G44U A111G C124G | -3.58 |
| A29C G63U | -3.09 |

| Variant | polymerase ribozyme fitness (log ratio) |
| --- | --- |
| U30C G113C | -3.49 |
| C28U G71A C89A C123G U130C | -3.76 |
| A29U C49A C64U C82A C97G A121G U133C | -3.41 |
| A29C G60U U87C | -2.47 |
| A29G C31G U55G C124U | -6.79 |
| A29G A37G G63A C88U A111C | -3.49 |
| C28U U59G C86G C89U | -4.05 |
| A29U A41G C53G | -2.64 |
| A29C C124G | -0.564 |
| A29C C124A | -0.296 |
| U30C A43U C56U G58U U112G | -6.19 |
| A29U U59G U78G G120U G128C U134A | -2.27 |
| A29G A37U A95C | -3.29 |
| U30C C56G C70G U109A | -5.1 |
| C28U G120C | -1.37 |
| C28U G120U | -1.78 |
| A29U U109C C124A | -3.97 |
| A29C A121U | 0.0449 |
| A29G C123U | -0.36 |
| A29G C123G | 0.246 |
| U30C G60A | -1.98 |
| A29G C40G A74U U81A U92G C115A | -3.87 |
| A29U G48U C72G G120A | -3.12 |
| A29C G48A A50C | -3.87 |

| Variant | polymerase ribozyme fitness (log ratio) |
| --- | --- |
| A29G C34A | -4.34 |
| A29U U54G U55G C101U | -4.04 |
| A29G C72U G135U | -1.91 |
| A29U G45U A74G | -3.27 |
| A29G A43C G122A | -4.45 |
| C28U G47U G93A | -5.35 |
| A29G C31A C56G C99A A121G U129C | -7.31 |
| C28U C56G | -2.75 |
| U30C A41G U78A A91G A108G | -2.61 |
| A29G C56G C62A | -4.43 |
| A29C G61C U87A | -4.41 |
| C28U G63A C88U | -3.69 |
| U30A | -4.65 |
| U30C | -1.66 |
| A29G A121U | 0.902 |
| A29G A50U C70G G113A | -5.1 |
| A29U G47C A119G | -2.66 |
| A29G C85G C88U | -2.58 |
| C28U C101A U106A | -1.04 |
| A29C G63A G120U | -3.1 |
| A29C G63C U78A U92A G120C | -5.6 |
| U30C G63A C124G | -3.09 |
| U30A A118U | -5.54 |
| A29G A41G C56A G61A C124A | -1.77 |

| Variant | polymerase ribozyme fitness (log ratio) |
| --- | --- |
| A29G G60C U106A U109C G117A G127A | -5.43 |
| A29G U109C | 0.997 |
| A29C C53G U133G | -4.74 |
| U30C C73U | -2.48 |
| C28U G47U C56U | -3.24 |
| A29G U59G G60U U130G | -2.01 |
| C28U C86U | -2.31 |
| A29G U81C A100U | -3.08 |
| A29G U109G C114G | -6.5 |
| A29G G71U A83U | -1.51 |
| A29G G69A C86A U112A C123G | -3.48 |
| C28U G71C | -2.78 |
| C28U G71A | -2.58 |
| A29U U81A C82A U87G U112A | -1.91 |
| A29G C97A U112C | -4.92 |
| A29U G127U | -3.66 |
| A29U G127C | -3.29 |
| C28U C56G G57C | -2.34 |
| A29G G60C A74U | -3.15 |
| A29C C62A | -3 |
| U30A A121C | -3.22 |
| A29U G45C U55G C64U G93U U109A G117U | -5.42 |
| C28U G93U U112C | -1.92 |
